Source: patent US20260139026A1 (published 2026)

Assays:
[1] = target: T1, PIK3CA H1047L (8-mer) peptide on HLA-A*03:01 (human); experiment: cytokine release
T1 peptide: LHGGWTTK

[2] = target: T2, PIK3CA H1047L (10-mer) peptide on HLA-A*03:01 (human); experiment: cytokine release
T2 peptide: DALHGGWTTK

[3] = target: T3, PIK3CA H1047L peptide on HLA-A*03:01 (human); experiment: multimer staining
T3 peptide: ALHGGWTTK

Measured: binding result

B1: 1022T8 (TCR, V domains shown)
Valpha: GDSVTQMEGPVTLSEEAFLTINCTYTATGYPSLFWYVQYPGEGLQLLLKATKADDKGSNKGFEATYRKETTSFHLEKGSVQVSDSAVYFCALTVGGSYIPTFGRGTSLIVHP
Vbeta: DTEVTQTPKHLVMGMTNKKSLKCEQHMGHRAMYWYKQKAKKPPELMFVYSYEKLSINESVPSRFSPECPNSSLLNLHLHALQPEDSALYLCASSQGGQGWRETQYFGPGTRLLVL
recognises: all assays above
